Laboratory results reported in article doi:10.1101/2021.03.28.437443.

Biological target: uncleaved full-length membrane-anchored HIV-1 JR-FL Env(-) glycoprotein (HIV-1 (strain JR-FL))
Experiment: cryo-EM structure

With “uncleaved full-length membrane-anchored HIV-1 JR-FL Env(-) glycoprotein (natural protein)” as the substance, how does the stoichiometry N read?
The stoichiometry N was 3.
